In the supplement of paper PMC10126150:
± gives the standard deviation of the averaged measurements.

system: ATP; test: switch fluorescence ratio, 500 uM ATP over buffer (Cy3 cluster intensity, sum of 5 cycles each) (fold (ratio)); higher = stronger signal-on switching upon ATP binding; sequences stand for … in TCGTCGGCAGCGTCAGATGTGTATAAGAGACAGTTTTTTTTTTTTTTTTTTTTTTTTT…TC; conditions: aptamer strand: ATP DNA aptamer (quencher-CACCTGGGGGAGTATTGCGGAGGAAGG + anchor), 100 nM annealed; ATP concentration: 500 uM
Method in brief: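 Between each of five buffer/ATP cycles, the flow-cell was stripped with NaOH and re-annealed. Each cycle imaged Cy3-labelled switching-strand clusters, annealed to 100 nM quencher-labelled ATP aptamer on a modified Illumina MiSeq flow-cell, first in selection buffer and then after 15 min with 500 uM ATP at 22 °C. The fluorescence ratio is summed target-cycle over summed buffer-cycle Cy3 intensity per cluster, averaged per switch-domain sequence, with clusters outside 100-1000 RFU excluded.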
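Further: ATP exposure 15 min at 22 °C before imaging.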

| Sequence | switch fluorescence ratio |
| --- | --- |
| TTGGAGAGAA | 0.974 ± 0.022 |
| GGGATCTGTT | 1.01 ± 0.019 |
| GCATTGGTAC | 1.17 ± 0.071 |
| GTTAAACGTT | 1 ± 0.014 |
| CGTAAAATGA | 0.992 ± 0.022 |
| AATAGAATTA | 1 ± 0.018 |
| TTGTTAGTCA | 1.0317 ± 4.4e-05 |
| CCGGGGGTTG | 1.04 ± 0.057 |
| TGTTTTCCCC | 1.02 ± 0.028 |
| TGGGTATGT | 1.03 ± 0.0087 |
| GGAGCGGACG | 1 ± 0.016 |
| CCGAGAAGAG | 1.58 ± 0.021 |
| TCGGGAGGTT | 1.01 ± 0.031 |
| CCCTGAATTG | 0.984 ± 0.053 |
| AGGGATTAGC | 0.988 ± 0.015 |
| ACGGGTTCCT | 1 ± 0.025 |
| TGGTTAGTGT | 1.01 ± 0.057 |
| AAACGATGTG | 0.985 ± 0.023 |
| CATTGCTTTT | 0.991 ± 0.024 |
| GGCGCGGGGA | 1.02 ± 0.045 |
| TTGGGCTAAT | 0.994 ± 0.029 |
| GGGCGGGGCG | 0.938 ± 0.063 |
| AGTGGGTCGG | 0.9824 ± 0.0097 |
| GGAGCACGTG | 1.12 ± 0.058 |
| TATAGCAAGT | 1.07 ± 0.034 |
| AAAGAAGCAT | 1.001 ± 0.0059 |

| Sequence | switch fluorescence ratio |
| --- | --- |
| TAGGACGGGT | 0.9932 ± 0.0054 |
| CGTGGGGATG | 1.001 ± 0.0031 |
| CGTTTGCAGT | 1.02 ± 0.017 |
| CATTTGAGGG | 0.988 ± 0.034 |
| TGGATGCTTG | 1.01 ± 0.045 |
| CTCAATAGCA | 1.036 ± 0.0037 |
| AGGCGATCGG | 0.99 ± 0.023 |
| AGAACAAACC | 1.08 ± 0.018 |
| CGATTCAACG | 1.02 ± 0.012 |
| TAGGAGCGTG | 1.02 ± 0.044 |
| ACGATAATCG | 0.996 ± 0.008 |
| TACATCATCG | 1.14 ± 0.016 |
| TCGAGGGGAT | 1.01 ± 0.027 |
| TTTTGCCTTA | 1.007 ± 0.0063 |
| GATTGGCAGC | 1.015 ± 0.0035 |
| GAAGGCTCTG | 0.9922 ± 0.0071 |
| TCAGGGACAG | 1.02 ± 0.021 |
| AGATGGGGCA | 0.9774 ± 0.0024 |
| GTAGCTGGGG | 0.98 ± 0.011 |
| TCATGACAGC | 1 ± 0.034 |
| CGTTACGTAG | 1.05 ± 0.018 |
| ATCAAAATAA | 1.06 ± 0.059 |
| ATCGGCAGTT | 1 ± 0.015 |
| GGCGGGGGGC | 0.986 ± 0.026 |
| CTCGTACTTA | 1 ± 0.019 |
| CGGATGGGTG | 0.996 ± 0.021 |

| Sequence | switch fluorescence ratio |
| --- | --- |
| GGGTTTCAGA | 1.01 ± 0.028 |
| GTGTCAATTA | 1.01 ± 0.021 |
| TGTGTGGGGT | 0.975 ± 0.021 |
| ATTTGTATTG | 1.01 ± 0.022 |
| ATGGTAGGTG | 1.04 ± 0.083 |
| TGGCGGTGGT | 0.978 ± 0.017 |
| CGAAGGGACG | 1.05 ± 0.081 |
| ATGTAGGGGC | 1.03 ± 0.046 |
| AATCCCGCCA | 1.19 ± 0.034 |
| TTTAATGAGC | 0.995 ± 0.014 |
| CGGGGATGCA | 1.03 ± 0.023 |
| TTTTCAGTTT | 1.022 ± 0.01 |
| CGACGAAACT | 1.15 ± 0.021 |
| GAGGGCCAGG | 1.13 ± 0.076 |
| AGGCGAGGGG | 0.988 ± 0.032 |
| GGCATTCATT | 0.989 ± 0.033 |
| CAAAAGACGG | 1.04 ± 0.02 |
| TTTAAGCGAT | 1.03 ± 0.015 |
| CAGTATAAAG | 0.9738 ± 0.0068 |
| GGTTGACGCA | 1.01 ± 0.03 |
| CTGAGTCGTG | 1 ± 0.066 |
| CACATGGTCG | 0.997 ± 0.02 |
| GGGTCCGCGG | 1.04 ± 0.011 |
| ACTTATTTGC | 1.16 ± 0.17 |
| CATCTCGTTT | 1.02 ± 0.042 |
| CGGGTGGGCA | 0.945 ± 0.019 |

| Sequence | switch fluorescence ratio |
| --- | --- |
| TCAGCGACTT | 1.01 ± 0.031 |
| TGGGTGTCGG | 1.04 ± 0.019 |
| AGTATGGGTA | 1 ± 0.018 |
| GGTCCTGTGG | 1.005 ± 0.006 |
| TTTTTTGGGT | 0.994 ± 0.024 |
| CTCCTCAGTG | 2.26 ± 0.29 |
| CGTTTGCGAT | 0.989 ± 0.05 |
| CTTTGACGGG | 0.989 ± 0.013 |
| AGATGTTGTT | 1.01 ± 0.023 |
| TATGTTTTTT | 0.997 ± 0.031 |
| CGGAATTTCC | 1.09 ± 0.048 |
| AAGTTTCGGG | 0.987 ± 0.027 |
| TTAGAGGTCT | 0.978 ± 0.011 |
| ATTGACGGGT | 0.9762 ± 0.0085 |
| TCCAGGGTTT | 1.06 ± 0.04 |
| TAGGAATACG | 1.24 ± 0.036 |
| AATGGTAAAC | 1.04 ± 0.018 |
| GAGGAGGTTT | 0.968 ± 0.017 |
| GGGATCTAGG | 0.974 ± 0.026 |
| CAGCTCAGCC | 1 ± 0.042 |
| TTCCAAGACA | 1.01 ± 0.026 |
| ACAGGAGTTT | 0.999 ± 0.01 |
| ATTCTAGTCG | 1.02 ± 0.086 |
| TTCGTTTACA | 1.01 ± 0.028 |
| GGTTGAGGGC | 1 ± 0.02 |
| GATGGAGTGT | 0.978 ± 0.018 |

| Sequence | switch fluorescence ratio |
| --- | --- |
| CGTGAAGGGA | 1.01 ± 0.026 |
| ATAATATGTG | 0.997 ± 0.029 |
| ACTGTTAATA | 1.03 ± 0.023 |
| ACCGTCCCCA | 1.26 ± 0.11 |
| AAAGAGTTGA | 1 ± 0.022 |
| TCGCCGCTAT | 2.61 ± 0.34 |
| CAAAAAATC | 1.02 ± 0.028 |
| GATTCTCTAT | 1.008 ± 0.0033 |
| AGTGGGAGTG | 0.983 ± 0.034 |
| TTTTGATTAT | 0.978 ± 0.034 |
| TAATTTAAGA | 1.01 ± 0.013 |
| CGTGAACTCT | 0.999 ± 0.016 |
| TTTATATGTA | 1.01 ± 0.022 |
| TGTCAAAAAG | 1 ± 0.017 |
| TTTGAGTGAT | 1.01 ± 0.057 |
| CATGGGTTCG | 1 ± 0.0066 |
| ATGTAGTCGC | 1.004 ± 0.0012 |
| CTGAAGGGAC | 1.15 ± 0.036 |
| GGATTTTATA | 1.01 ± 0.024 |
| GATTCAGCGG | 0.97 ± 0.015 |
| TCGGAGCTTA | 2.977 ± 0.018 |
| GAACGTGGGT | 0.987 ± 0.052 |
| TGGGGGTGAC | 1.04 ± 0.038 |
| TGGTTTAAAT | 1.04 ± 0.054 |
| CCAAGGGGGA | 1.09 ± 0.1 |
| GCTTTTTTGA | 0.993 ± 0.042 |

| Sequence | switch fluorescence ratio |
| --- | --- |
| CACGGCAGGG | 1.01 ± 0.012 |
| TTATTTTCAC | 1.04 ± 0.036 |
| AAAACGTTTG | 1.025 ± 0.0023 |
| AGGGAAAAGG | 1.02 ± 0.031 |
| AGAACGGCCT | 1.01 ± 0.019 |
| GAAATGTACG | 1.04 ± 0.021 |
| CCGGGGGCGA | 2.64 ± 1.4 |
| GCCTGGTTTT | 0.979 ± 0.024 |
| GAAGTAGGGG | 0.977 ± 0.033 |
| CGTTCGGCTG | 1.04 ± 0.039 |
| CATCGGCCGC | 1.0223 ± 0.00032 |
| ATGTATTTTG | 0.967 ± 0.049 |
| ATTATCAGTT | 0.987 ± 0.021 |
| GCATATTTTT | 1.026 ± 0.0032 |
| TTCGGTGGGA | 1.07 ± 0.02 |
| TTCCGAGTTT | 1.15 ± 0.19 |
| GATGGGTTGA | 1.06 ± 0.03 |
| ATGCACTGCT | 1.04 ± 0.021 |
| ACATGACGGT | 1.06 ± 0.027 |
| TTGATAAGTT | 0.9751 ± 0.0069 |
| CGTTCCAGCC | 1.04 ± 0.041 |
| TAGGTTCGAC | 0.972 ± 0.031 |
| CCAAGTGCGG | 1.01 ± 0.029 |
